The target of series [1] is T1, mouse RBPJ S358R, conserved core (residues 53-474) (mouse, UniProt P31266 53-474, S358R).
T1 construct: RBPJ (Rbpj), mouse, conserved core, residues 53-474, with S358R; Variant found in human AOS patients (human S332R), put into the mouse protein by mutagenesis; also called analogous to human S332R; source: pGEX-6P-1 plasmid, QuikChange mutagenesis
Put plainly: ITC; MicroCal VP-ITC, 25 °C, 50 mM sodium phosphate pH 6.5, 150 mM NaCl; ligand (RAM peptide or SMT3-SHARP) in the syringe, RBPJ in the cell: 100 µM into 10 µM (R91G), 50 µM into 5 µM (F92V), 40 µM into 4 µM (S358R); 20 injections of 14 µL; 1-site binding model; mean and SD of triplicates. Conditions: both partners purified.

Series [2] has as its target T2, mouse RBPJ F92V, conserved core (residues 53-474) (mouse, UniProt P31266 53-474, F92V).
T2 construct: RBPJ (Rbpj), mouse, conserved core, residues 53-474, with F92V; Variant found in human AOS patients (human F66V), put into the mouse protein by mutagenesis; also called analogous to human F66V; source: pGEX-6P-1 plasmid, QuikChange mutagenesis
The series is described as above. Particulars: both partners purified.

The target of series [3] is T3, mouse RBPJ R91G, conserved core (residues 53-474) (mouse, UniProt P31266 53-474, R91G).
T3 construct: RBPJ (Rbpj), mouse, conserved core, residues 53-474, with R91G; Variant found in human AOS patients (human R65G), put into the mouse protein by mutagenesis; also called analogous to human R65G; source: pGEX-6P-1 plasmid, QuikChange mutagenesis
T3 sequence (P31266 53-474 R91G): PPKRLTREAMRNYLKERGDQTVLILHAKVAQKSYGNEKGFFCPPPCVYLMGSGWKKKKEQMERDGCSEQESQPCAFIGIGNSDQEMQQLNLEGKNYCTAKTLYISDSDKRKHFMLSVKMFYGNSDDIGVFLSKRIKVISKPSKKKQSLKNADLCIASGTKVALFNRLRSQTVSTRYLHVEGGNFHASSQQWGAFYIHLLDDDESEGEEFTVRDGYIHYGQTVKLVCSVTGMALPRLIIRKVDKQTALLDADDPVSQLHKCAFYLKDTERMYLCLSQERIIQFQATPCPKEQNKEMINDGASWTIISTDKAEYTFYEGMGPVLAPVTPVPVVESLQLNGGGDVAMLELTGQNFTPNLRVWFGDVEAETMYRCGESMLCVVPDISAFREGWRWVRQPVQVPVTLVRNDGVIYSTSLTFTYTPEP
The description is as above. Particulars: both partners purified.

The target of series [4] is RBPJ R91G (Mus musculus, UniProt P31266 53-474, R91G). Put plainly: EMSA; 5, 25, 125 nM protein; ITC: 50 mM sodium phosphate pH 6.5, 150 mM NaCl, 10 C, DNA 100 uM in syringe, protein 10 uM in cell; EMSA: 20 min at room temperature, buffer as previously described (not given). Conditions: protein: recombinant; tags: GST-fusion vector pGEX-6P-1; label: 5' IRDye-700 on bottom strand; blunt; S3 primer annealed to S2 and filled in with DNA polymerase I.
Sequence of RBPJ R91G (P31266 53-474 R91G): as above

The target in series [5] is T4, RBPJ 53-474 (WT mouse RBPJ, conserved core) (mouse, UniProt P31266 53-474).
T4 construct: RBPJ, mouse, conserved core (NTD, BTD, linker, CTD), residues 53-474; PDB 3BRG (RBPJ on DNA) was used for modelling only; also called WT RBPJ
T4 sequence (P31266 53-474): as the sequence (P31266 53-474 R91G) above, with G39R counted along it
Put plainly: ITC; MicroCal VP-ITC; NOTCH1 peptide or SMT3-SHARP in the syringe (40-100 uM), RBPJ in the cell (4-10 uM); 25 C (298 K); 50 mM sodium phosphate pH 6.5, 150 mM NaCl; 20 injections of 14 uL; 1-site binding model; each of three replicates printed on its own. Particulars: both partners purified.

In series [6] the target is T5, RBPJ 53-474, K195E (mouse, UniProt P31266 53-474, K195E).
T5 construct: RBPJ, mouse, conserved core, residues 53-474, with K195E (analogous to the human AOS variant K169E); AOS-associated human variant placed in the mouse protein; also called RBPJ^K195E (human K169E)
T5 sequence (P31266 53-474 K195E): as the sequence (P31266 53-474 R91G) above, with G39R, K143E counted along it
Described as above. Conditions: both partners purified.

Series [7] has as its target T6, RBPJ 53-474, E89G (mouse, UniProt P31266 53-474, E89G).
T6 construct: RBPJ, mouse, conserved core, residues 53-474, with E89G (analogous to the human AOS variant E63G); AOS-associated human variant placed in the mouse protein; also called RBPJ^E89G (human E63G)
The description is as above. Particulars: both partners purified.

Series [8] has as its target T7, RBPJ 53-474, F92V (mouse, UniProt P31266 53-474, F92V).
T7 construct: RBPJ, mouse, conserved core, residues 53-474, with F92V (analogous to the human AOS variant F66V); AOS-associated human variant placed in the mouse protein; also called RBPJ^F92V (human F66V)
The series is described as above. Particulars: both partners purified.

The target of series [9] is T8, RBPJ 53-474, S358R (mouse, UniProt P31266 53-474, S358R).
T8 construct: RBPJ, mouse, conserved core, residues 53-474, with S358R (analogous to the human AOS variant S332R); AOS-associated human variant placed in the mouse protein; also called RBPJ^S358R (human S332R)
T8 sequence (P31266 53-474 S358R): as the sequence (P31266 53-474 R91G) above, with G39R, S306R counted along it
The description is as above. Conditions: both partners purified.

The target of series [10] is T4, RBPJ 53-474 (WT mouse RBPJ, conserved …). The description is as above. Particulars: both partners purified. The source holds these as a separate data set.
Series [11] has as its target T9, RBPJ 53-474, R91G (mouse, UniProt P31266 53-474, R91G).
T9 construct: RBPJ, mouse, conserved core, residues 53-474, with R91G (analogous to the human AOS variant R65G); AOS-associated human variant placed in the mouse protein; also called RBPJ^R91G (human R65G)
The series is described as above. Conditions: both partners purified.

Series [12] has as its target T5, RBPJ 53-474, K195E. The description is as above. Conditions: both partners purified. The source holds these as a separate data set.
Series [13] deals with T6, RBPJ 53-474, E89G. The description is as above. Particulars: both partners purified. This is another data set of the same source.
Series [14] deals with T7, RBPJ 53-474, F92V. Described as above. Conditions: both partners purified. This is another data set of the same source.
Series [15] has as its target T8, RBPJ 53-474, S358R. The description is as above. Conditions: both partners purified. The source holds these as a separate data set.

These results are taken from paper PMC12646667, “Defective Notch1 signaling in endothelial cells drives pathogenesis in a mouse model of Adams-Oliver syndrome” (The Journal of Clinical Investigation, 2025).

Several values for one entry are separate records, joined by “and”; a condition that tells them apart may be missing. Equal entries are not always repeated.

T9 sequence (P31266 53-474 R91G): as the sequence (P31266 53-474 R91G) above
T6 sequence (P31266 53-474 E89G): as the sequence (P31266 53-474 R91G) above, with E37G, G39R counted along it
T7 sequence (P31266 53-474 F92V): as the sequence (P31266 53-474 R91G) above, with G39R, F40V counted along it
T1 sequence (P31266 53-474 S358R): as the sequence (P31266 53-474 R91G) above, with G39R, S306R counted along it
T2 sequence (P31266 53-474 F92V): as the sequence (P31266 53-474 R91G) above, with G39R, F40V counted along it

B1: RBPJ association module (RAM) domain peptide of the human Notch1 intracellular domain, residues 1754-1781 (peptide)
peptide: VLLSRKRRRQHGQLWFPEGFKVSEASKK
notes: NOTCH1, human, RAM domain of the intracellular domain, residues 1754-1781; also called NICD; NICD1; source: synthetic peptide
Consider B1, for which the Kd in [1] was 13.3 nM; in series [2] it was 11.5 nM; in series [3] it was 21.4 nM.

B2: EMSA probe 1xCSL (1016ic) (dsDNA)
DNA 1: CGAACGAGGCAAACCTAGGCTAGAGGCACCGTGGGAAACTAGTGCGGGCGTGGCT
DNA 2: AGCCACGCCCGCACTAGTTTCCCACGGTGCCTCTAGCCTAGGTTTGCCTCGTTCG
As to B2, the binding result in [4] is on record as “no binding”.

B3: SMT3-SHARP 2776-2833, fusion protein with the region of the human SHARP co-repressor that binds RBPJ (domain or fragment, UniProt Q96T58 2776-2833, looked up)
chain: RASANENSRFHPGSMPVIDDRPADAGSGAGLRVNTSEGVVLLSYSGQKTEGPQRISAK
notes: SHARP (SPEN), human, residues 2776-2833; not shown: SMT3, N-terminal, kept
For the molecule B3, the figures for the Kd in [1] and in series [2] were 7.9 nM and 10.3 nM, respectively.

B4: SMT3-MINT 2776-2833 (human SHARP residues 2776-2833 with N-terminal SMT3 and His tag) (domain or fragment, UniProt Q96T58 2776-2833, looked up)
chain: RASANENSRFHPGSMPVIDDRPADAGSGAGLRVNTSEGVVLLSYSGQKTEGPQRISAK
notes: SHARP (MINT), human, residues 2776-2833; not shown: SMT3, N-terminal, kept
Turning to B4, the “stoichiometry N” value in [5] was 1.2 and 1 and 1.06; in [6], 0.94 and 0.84 and 0.95; in [7] it was 1.37 and 1.34 and 1.15; in [8], 1.17 and 1.09 and 1.12; in series [9] it was 0.89 and 1.02 and 1.08. For the same molecule, the Kd in series [6] was 12 nM and 35 nM and 17 nM; in series [8] it was 11 nM and 11.3 nM and 9 nM; in series [9] it was 10 nM and 7.8 nM and 6 nM. The Ka in series [8] is 8.9e+07 M⁻¹ (2×) and 1.2e+08 M⁻¹; in series [9] it was 9.83e+07 M⁻¹ and 1.28e+08 M⁻¹ and 1.73e+08 M⁻¹.

B5: human NOTCH1 peptide consisting of residues 1754-1781 (peptide, UniProt P46531 1754-1781, looked up)
peptide: VLLSRKRRRQHGQLWFPEGFKVSEASKK
notes: NOTCH1, human, RAM region, residues 1754-1781; also called hN1 RAM 1754-1781; NICD1
On to B5, for which the Ka in [10] is 5e+07 M⁻¹ (2×) and 4.4e+07 M⁻¹; in series [11], 6.04e+07 M⁻¹ and 6.65e+07 M⁻¹ and 3.08e+07 M⁻¹; in series [12], 7.46e+07 M⁻¹ and 3.08e+07 M⁻¹ and 4.69e+07 M⁻¹; in series [13] it was 6.24e+07 M⁻¹ and 7.22e+07 M⁻¹ and 3.37e+07 M⁻¹; in series [14], 1.42e+08 M⁻¹ and 1.04e+08 M⁻¹ and 5.61e+07 M⁻¹. The Kd in [10] is 20 nM and 22 nM; in series [11] it was 17 nM and 15 nM and 32 nM; in series [12], 13 nM and 32 nM and 21 nM; in series [13], 16 nM and 14 nM and 30 nM; in [14], 7 nM and 10 nM and 18 nM. Besides, the “stoichiometry N” value in [10] is 1.21 and 1.2 and 1.14; in series [11] it was 1.06 and 1.03 and 0.92; in [12], 1.33 and 1.2 and 1.23; in series [13], 0.84 and 0.73 and 1.32; in series [14] it was 0.85 and 0.75 and 0.63; in [15], 0.86 and 0.72 and 0.77.
